# According to patent US6730480B1, “Sphingosine kinase enzyme” (Johnson & Johnson Pharmaceutical Research and Development …, priority 1999, dated 2004):
# Legend:
# [1] = test system: sphingosine kinase activity in HEK293 cells; experiment: Transient expression of hSK and TNFα stimulation of sphingosine kinase activity in HEK293 cells; format: cell-based, human
# Description: (§1) Sphingosine kinase activity was routinely determined using D-erythro-sphingosine and [γ^32P]ATP as substrates, essentially as previously described (Olivera et al., 1998) with some modifications. Briefly, assays were performed by incubating samples at 37° C. for 30 min with sphingosine (100 μM stock dissolved in 5% Triton X-100) and [γ-^32P]ATP (1 mM; 10 μCi/ml) in assay buffer containing 100 mM Tris/HCl (pH 7.4), 10 mM MgCl2 10% (v/v) glycerol, 1 mM dithiothreitol, 1 mM EGTA, 1 mM Na3VO4, 15 mM NaF, 0.5 mM 4-deoxypyridoxine in a total volume of 100 μl. Reactions were terminated and sphingosine-1-phosphate extracted by the addition of 700 μl of chloroform/methanol/HCl (100:200:1. v/v), followed by vigorous mixing, addition of 200 μp of chloroform and 200 μl of 2 M KCl, and phase separation by centrifugation. The labeled S1P in the organic phase was isolated by TLC on Silica Gel 60 with 1-butanol/ethanol/acetic acid/water (8:2:1:2, v/v) and quantitated by phosphorimager (Molecular Dynamics. Sunnyvale, Calif.). One unit (U) of activity is defined as 1pmol of S1P formed per minute.
# For mammalian cell expression the hSK cDNA was FLAG epitope tagged at the 3′-end by PFU polymerase PCR with oligonucleotide primers T7 and 5′-[…]-3′ [SEQ ID NO:5]. […] The orientation was determined by restriction analysis and sequencing verified the integrity of the hSK-FLAG cDNA sequence. […]
# [2] = test system: sphingosine kinase activity in HUVEC; experiment: TNFα stimulation of sphingosine kinase activity in HUVEC extracts; format: cell-based, human; settings: TNFα treated HUVEC (untreated HUVEC 78)
# Description: as §1
# Human umbilical vein endothelial cells (HUVEC) were isolated as previously described (Wall et al., 1978) and cultured on gelatin-coated culture flasks in medium M199 with Earle's salts supplemented with 20% fetal calf serum, 25 μg/ml endothelial growth supplement (Collaborative Research) and 25 μg/ml heparin. […]
# [3] = substrate: CCCCCCCCCCCCC/C=C/[C@@H](O)[C@@H](N)CO; experiment: Sphingosine kinase enzyme assay with native SK purified from human placenta; format: biochemical; settings: other: Native SK, 37.0 °C
# Description: The substrates examined were added to a final concentration of 100 μM in 0.25% (w/v) Triton X-100, and assayed under the standard assay conditions outlined earlier.
# Substrate kinetics were determined by supplying substrates over the concentration range of 0.5 to 200 μM for sphingosine analogues, and 5 to 1000 μM for ATP. Inhibition kinetics were determined by the use of inhibitors over a concentration range of 2 to 50 μM (Table 5). In both cases the data were analysed by non-linear regression.
# The effect of metal ions on the activity of the native and recombinant sphingosine kinases were determined by assaying the activity under standard conditions in the presence of various metal ions or EDTA at 10 mM.
# [4] = format: physicochemical, human; settings: pH range 4 to 11, 50 mM buffers, 37° C.
# Description: The effect of pH on the activity of the isolated sphingosine kinases was determined over the pH range 4.0 to 11.0 in 50 mM buffers (sodium acetate, pH 4.0-5.0; Mes, pH 6.0-7.0; Hepes, pH 7.0-8.2; Tris/HCl, pH 8.2-10.0: Caps, pH 10.0-11.0) at 37° C. pH stability was determined by assaying the residual activity after pre-incubation of the enzymes in the same buffers for 5 h at 4° C. Similarly, thermal stabilities were determined by assaying the residual activity after pre-incubation of the enzymes at various temperatures (4-80° C.) for 30 min at pH 7.4 (50 mM Tris/HCl containing 10% glycerol, 0.5 M NaCl and 0.05% Triton X-100). Substrate kinetics were analysed using Michaelis-Menten kinetics with a weighted non-linear regression program (Easterby, 1996). Since sphingosine and its analogues were added to the enzyme assays in mixed micelles with Triton X-100, where they exibit surface dilution kinetics (Buehrer and Bell. 1992), all K, and KC values obtained for these molecules were expressed as mol % of Triton X-100, rather than as bulk solution concentrations. […]
# Thermal stabilities of the native and recombinant sphingosine kinases were determined by assaying the residual activity remaining after preincubation of the enzymes at various temperatures (4 to 80° C.) for 30 min at pH 7.4 (50 mM Tris/HCl containing 10% glycerol, 0.5M NaCl and 0.05% Triton X-100). […]
# [5] = substrate: CCCCCCCCCCCCC/C=C/[C@@H](O)[C@@H](N)CO; experiment: Sphingosine kinase enzyme assay with recombinant human SK expressed in E. coli; format: biochemical; settings: other: Recombinant SK
# [6] = sphingosine supplied as a sphingosine-BSA complex
# [7] = substrate kinetics, bulk solution concentration
molecule,measurement,setting,value
TNFα,Increase in sphingosine kinase activity after TNFα treatment,"[1]; hSK-transfected HEK293 cells, TNFα 1 ng/ml, 10 min",approximately 2 fold
same,Total sphingosine kinase activity in cell extract,[2],136 U/mg proteins
"native sphingosine kinase (human placenta SK1) (Homo sapiens) (protein, from tissue; host or cells: human placenta) MDPAGGPRGVLPRPCRVLVLLNPRGGKGKALQLFRSHVQPLLAEAEISFTLMLTERRNHARELVRSEELGRWDALVVMSGDGLMHEVVNGLMERPDWETAIQKPLCSLPAGSGNALAASLNHYAGYEQVTNEDLLTNCTLLLCRRLLSPMNLLSLHTASGLRLFSVLSLAWGFIADVDLESEKYRRLGEMRFTLGTFLRLAALRTYRGRLAYLPVGRVGSKTPASPVVVQQGPVDAHLVPLEEPVPSHWTVVPDEDFVLVLALLHSHLGSEMFAAPMGRCAAGVMHLFYVRAGVSRAMLLRLFLAMEKGRHMEYECPYLVYVPVVAFRLEPKDGKGVFAVDGELMVSEAVQGQVHPNYFWMVSGCVEPPPSWKPQQMPPPEEPL",kcat,[3]; [6],28 s⁻¹
same,Km,[3]; [7],14 ± 2 µM
same,kcat,[3]; [7],50 s⁻¹
same,kcat/Km,[3]; [7],3.6e+06 M⁻¹ s⁻¹
"recombinant sphingosine kinase: hSK expressed as GST fusion in E. coli BL21, thrombin-cleaved and purified (protein) MDPAGGPRGVLPRPCRVLVLLNPRGGKGKALQLFRSHVQPLLAEAEISFTLMLTERRNHARELVRSEELGRWDALVVMSGDGLMHEVVNGLMERPDWETAIQKPLCSLPAGSGNALAASLNHYAGYEQVTNEDLLTNCTLLLCRRLLSPMNLLSLHTASGLRLFSVLSLAWGFIADVDLESEKYRRLGEMRFTLGTFLRLAALRTYRGRLAYLPVGRVGSKTPASPVVVQQGPVDAHLVPLEEPVPSHWTVVPDEDFVLVLALLHSHLGSEMFAAPMGRCAAGVMHLFYVRAGVSRAMLLRLFLAMEKGRHMEYECPYLVYVPVVAFRLEPKDGKGMFAVDGELMVSEAVQGQVHPNYFWMVSGCVEPPPSWKPQQMPPPEEPL",pH of maximum activity,[4],7.4
"native sphingosine kinase: sphingosine kinase SK1 purified to homogeneity from human placenta (protein, UniProt Q9NYA1 1-384, looked up) Sphingosine kinase 1: MDPAGGPRGVLPRPCRVLVLLNPRGGKGKALQLFRSHVQPLLAEAEISFTLMLTERRNHARELVRSEELGRWDALVVMSGDGLMHEVVNGLMERPDWETAIQKPLCSLPAGSGNALAASLNHYAGYEQVTNEDLLTNCTLLLCRRLLSPMNLLSLHTASGLRLFSVLSLAWGFIADVDLESEKYRRLGEMRFTLGTFLRLAALRTYRGRLAYLPVGRVGSKTPASPVVVQQGPVDAHLVPLEEPVPSHWTVVPDEDFVLVLALLHSHLGSEMFAAPMGRCAAGVMHLFYVRAGVSRAMLLRLFLAMEKGRHMEYECPYLVYVPVVAFRLEPKDGKGVFAVDGELMVSEAVQGQVHPNYFWMVSGCVEPPPSWKPQQMPPPEEPL",pH of maximum activity,[4],7.4
"hSK: human sphingosine kinase encoded by the cloned cDNA, SEQ ID NO:2 (protein) MDPAGGPRGVLPRPCRVLVLLNPRGGKGKALQLFRSHVQPLLAEAEISFTLMLTERRNHARELVRSEELGRWDALVVMSGDGLMHEVVNGLMERPDWETAIQKPLCSLPAGSGNALAASLNHYAGYEQVTNEDLLTNCTLLLCRRLLSPMNLLSLHTASGLRLFSVLSLAWGFIADVDLESEKYRRLGEMRFTLGTFLRLAALRTYRGRLAYLPVGRVGSKTPASPVVVQQGPVDAHLVPLEEPVPSHWTVVPDEDFVLVLALLHSHLGSEMFAAPMGRCAAGVMHLFYVRAGVSRAMLLRLFLAMEKGRHMEYECPYLVYVPVVAFRLEPKDGKGMFAVDGELMVSEAVQGQVHPNYFWMVSGCVEPPPSWKPQQMPPPEEPL",Increase in sphingosine kinase activity on transient expression,"[1]; HEK293 cells, pcDNA3-hSK, versus untransfected or empty vector",3200 fold
"recombinant human sphingosine kinase (Homo sapiens) (protein, The full length SPHK cDNA cloned into pGEX4T2 was transformed into E. coli BL21; GST (N, cleaved yes); made in house; host or cells: E. coli BL21) MDPAGGPRGVLPRPCRVLVLLNPRGGKGKALQLFRSHVQPLLAEAEISFTLMLTERRNHARELVRSEELGRWDALVVMSGDGLMHEVVNGLMERPDWETAIQKPLCSLPAGSGNALAASLNHYAGYEQVTNEDLLTNCTLLLCRRLLSPMNLLSLHTASGLRLFSVLSLAWGFIADVDLESEKYRRLGEMRFTLGTFLRLAALRTYRGRLAYLPVGRVGSKTPASPVVVQQGPVDAHLVPLEEPVPSHWTVVPDEDFVLVLALLHSHLGSEMFAAPMGRCAAGVMHLFYVRAGVSRAMLLRLFLAMEKGRHMEYECPYLVYVPVVAFRLEPKDGKGVFAVDGELMVSEAVQGQVHPNYFWMVSGCVEPPPSWKPQQMPPPEEPL",kcat,[5]; [6],39 s⁻¹
same,Km,[5]; [7],12 ± 3 µM
same,kcat,[5]; [7],85 s⁻¹
same,kcat/Km,[5]; [7],7.1e+06 M⁻¹ s⁻¹
